Assay results from US20200317768A1 (published 2020).

T1: human FcγRIIaH extracellular domain, His-tagged (human, UniProt P12318 34-217)
T1 construct: also called human FcγRIIa (type H); FcgRIIaH
T1 sequence: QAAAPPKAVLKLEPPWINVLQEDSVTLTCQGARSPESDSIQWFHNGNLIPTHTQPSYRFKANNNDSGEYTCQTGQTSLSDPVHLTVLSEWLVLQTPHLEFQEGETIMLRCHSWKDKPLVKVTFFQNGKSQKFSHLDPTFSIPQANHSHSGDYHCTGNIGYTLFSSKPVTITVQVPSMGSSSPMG

T2: cynomolgus monkey FcγRIIa1 extracellular domain, His-tagged (cynomolgus monkey)
T2 construct: also called cyno FcγRIIa1; cynoFcgRIIa1
T2 chain: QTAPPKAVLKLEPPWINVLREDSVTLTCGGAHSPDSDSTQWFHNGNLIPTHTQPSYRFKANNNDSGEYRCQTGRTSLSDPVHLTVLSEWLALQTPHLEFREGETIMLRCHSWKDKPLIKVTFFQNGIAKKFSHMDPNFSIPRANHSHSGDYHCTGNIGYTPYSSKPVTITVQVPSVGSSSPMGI

T3: cynomolgus monkey FcγRIIa2 extracellular domain, His-tagged (cynomolgus monkey)
T3 construct: also called cyno FcγRIIa2; cynoFcgRIIa2
T3 chain: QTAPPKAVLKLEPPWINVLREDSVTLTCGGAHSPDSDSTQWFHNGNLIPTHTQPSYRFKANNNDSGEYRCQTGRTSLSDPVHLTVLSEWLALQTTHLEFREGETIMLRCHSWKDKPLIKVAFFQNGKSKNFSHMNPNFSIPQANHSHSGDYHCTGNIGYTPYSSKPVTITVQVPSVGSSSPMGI

T4: cynomolgus monkey FcγRIIb extracellular domain, His-tagged (cynomolgus monkey)
T4 construct: also called cyno FcγRIIb; cynoFcγRIIb
T4 chain: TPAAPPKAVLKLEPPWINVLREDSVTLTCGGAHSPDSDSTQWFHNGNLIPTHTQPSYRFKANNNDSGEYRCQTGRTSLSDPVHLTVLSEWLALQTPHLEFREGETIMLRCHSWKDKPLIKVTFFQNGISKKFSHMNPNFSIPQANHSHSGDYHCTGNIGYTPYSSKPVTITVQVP

T5: cynomolgus monkey FcγRIIIaS extracellular domain, His-tagged (cynomolgus monkey, UniProt Q8SPW2 21-206 at identity 1.00))
T5 construct: also called cyno FcγRIIIaS; cynoFcγRIIIaS
T5 chain: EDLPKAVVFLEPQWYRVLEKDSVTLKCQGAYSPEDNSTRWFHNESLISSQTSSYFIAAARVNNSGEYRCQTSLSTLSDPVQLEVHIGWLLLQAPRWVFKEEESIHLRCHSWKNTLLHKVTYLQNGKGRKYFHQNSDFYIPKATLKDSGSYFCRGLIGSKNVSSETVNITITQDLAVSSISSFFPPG

T6: human FcγRIIaR extracellular domain, His-tagged (human, UniProt P12318 34-217)
T6 construct: also called human FcγRIIa (type R); FcgRIIaR
T6 chain: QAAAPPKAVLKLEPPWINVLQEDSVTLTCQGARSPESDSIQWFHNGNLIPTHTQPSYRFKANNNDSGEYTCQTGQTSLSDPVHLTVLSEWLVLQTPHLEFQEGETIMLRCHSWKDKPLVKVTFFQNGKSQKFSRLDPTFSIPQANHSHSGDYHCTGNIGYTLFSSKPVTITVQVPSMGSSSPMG

T7: human FcγRIIb extracellular domain, His-tagged (human, UniProt P31994 43-217)
T7 construct: also called FcgRIIb (human)
T7 sequence: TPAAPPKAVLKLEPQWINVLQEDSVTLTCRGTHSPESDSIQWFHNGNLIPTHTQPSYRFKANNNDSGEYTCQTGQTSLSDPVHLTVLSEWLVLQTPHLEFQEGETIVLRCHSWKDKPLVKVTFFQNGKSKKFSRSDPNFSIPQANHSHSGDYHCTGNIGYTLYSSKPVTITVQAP


Tests used:
[1] = target: T1, human FcγRIIaH extracellular domain, …; test: SPR; KD of SG1 / KD of variant;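 also: relative to parent M103205H795-SG1 carrying the SG1 human heavy chain constant region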
[2] = target: T2, cynomolgus monkey FcγRIIa1 …; test: SPR, antibody captured, FcgR analyte
[3] = target: T3, cynomolgus monkey FcγRIIa2 …; test: SPR, antibody captured, FcgR analyte
[4] = target: T4, cynomolgus monkey FcγRIIb extracellular …; test: SPR, antibody captured, FcgR analyte
[5] = target: T5, cynomolgus monkey FcγRIIIaS …; test: SPR, antibody captured, FcgR analyte
[6] = target: T1, human FcγRIIaH extracellular domain, …; test: SPR, antibody captured, FcgR analyte
[7] = target: T6, human FcγRIIaR extracellular domain, …; test: SPR, antibody captured, FcgR analyte
[8] = target: T7, human FcγRIIb extracellular domain, …; test: SPR, antibody captured, FcgR analyte
[9] = target: T8, human FcγRIIIaV extracellular domain, His-tagged (human, UniProt P08637 17-208); test: SPR, antibody captured, FcgR analyte
T8 construct: also called FcgRIIIaV
T8 sequence (P08637 17-208 F176V): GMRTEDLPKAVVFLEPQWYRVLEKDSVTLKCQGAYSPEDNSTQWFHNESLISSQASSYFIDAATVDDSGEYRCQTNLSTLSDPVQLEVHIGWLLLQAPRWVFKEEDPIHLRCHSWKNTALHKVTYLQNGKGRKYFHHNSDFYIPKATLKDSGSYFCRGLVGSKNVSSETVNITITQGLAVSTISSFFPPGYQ

| Binder | KD fold (SG1 = 1) [1] [fold] | Kd [2] [nM] | Kd [3] [nM] | Kd [4] [nM] | Kd [5] [nM] | Kd [6] [nM] | Kd [7] [nM] | Kd [8] [nM] | Kd [9] [nM] |
| --- | --- | --- | --- | --- | --- | --- | --- | --- | --- |
| M103205H795-MY071/M103202L889-SK1 (antibody, human IgG1, kappa, Substitution put into M103205H795-SG1) heavy: not shown light: DIVMTQSPATLSLSPGERATLSCTSSQSVYHANWLSWFQQKPGQPPKLLIYWASTLAYGVPSRFSGSGSGTDFTLTISSLQPEDAATYYCAGGYGGGRYAFGQGTKVEIKRTVAAPSVFIFPPSDEQLKSGTASVVCLLNNFYPREAKVQWKVDNALQSGNSQESVTEQDSKDSTYSLSSTLTLSKADYEKHKVYACEVTHQGLSSPVTKSFNRGEC | 1.7 | 5000 | 3700 | 2500 | 280 | 400 | 450 | 8100 | 510 |
| M103205H795-MY196/M103202L889-SK1 (antibody, human IgG1, kappa, Substitution put into M103205H795-SG1) heavy: not shown light: DIVMTQSPATLSLSPGERATLSCTSSQSVYHANWLSWFQQKPGQPPKLLIYWASTLAYGVPSRFSGSGSGTDFTLTISSLQPEDAATYYCAGGYGGGRYAFGQGTKVEIKRTVAAPSVFIFPPSDEQLKSGTASVVCLLNNFYPREAKVQWKVDNALQSGNSQESVTEQDSKDSTYSLSSTLTLSKADYEKHKVYACEVTHQGLSSPVTKSFNRGEC | 1.4 | 2500 | 3000 | 2400 | 600 | 480 | 1300 | 6200 | 2200 |
| M103205H795-MY124/M103202L889-SK1 (antibody, human IgG1, kappa, Substitution put into M103205H795-SG1) heavy: not shown light: DIVMTQSPATLSLSPGERATLSCTSSQSVYHANWLSWFQQKPGQPPKLLIYWASTLAYGVPSRFSGSGSGTDFTLTISSLQPEDAATYYCAGGYGGGRYAFGQGTKVEIKRTVAAPSVFIFPPSDEQLKSGTASVVCLLNNFYPREAKVQWKVDNALQSGNSQESVTEQDSKDSTYSLSSTLTLSKADYEKHKVYACEVTHQGLSSPVTKSFNRGEC | 4.9 | 2600 | 3100 | 2200 | 1300 | 140 | 520 | 9200 | 5200 |

These reach a lower Kd [2]. Values come first.

| KD fold (SG1 = 1) [1] [fold] | Kd [2] [nM] | Kd [3] [nM] | Kd [4] [nM] | Kd [5] [nM] | Kd [6] [nM] | Kd [7] [nM] | Kd [8] [nM] | Kd [9] [nM] | Binder |
| --- | --- | --- | --- | --- | --- | --- | --- | --- | --- |
| 1.4 | 2300 | 2500 | 1200 | 490 | 500 | 740 | 2600 | 700 | M103205H795-MY070/M103202L889-SK1 (antibody, human IgG1, kappa, Substitution put into M103205H795-SG1) heavy: not shown light: DIVMTQSPATLSLSPGERATLSCTSSQSVYHANWLSWFQQKPGQPPKLLIYWASTLAYGVPSRFSGSGSGTDFTLTISSLQPEDAATYYCAGGYGGGRYAFGQGTKVEIKRTVAAPSVFIFPPSDEQLKSGTASVVCLLNNFYPREAKVQWKVDNALQSGNSQESVTEQDSKDSTYSLSSTLTLSKADYEKHKVYACEVTHQGLSSPVTKSFNRGEC |
| 2.9 | 1200 | 1300 | 670 | 170 | 240 | 500 | 2000 | 340 | M103205H795-MY073/M103202L889-SK1 (antibody, human IgG1, kappa, Substitution put into M103205H795-SG1) heavy: not shown light: DIVMTQSPATLSLSPGERATLSCTSSQSVYHANWLSWFQQKPGQPPKLLIYWASTLAYGVPSRFSGSGSGTDFTLTISSLQPEDAATYYCAGGYGGGRYAFGQGTKVEIKRTVAAPSVFIFPPSDEQLKSGTASVVCLLNNFYPREAKVQWKVDNALQSGNSQESVTEQDSKDSTYSLSSTLTLSKADYEKHKVYACEVTHQGLSSPVTKSFNRGEC |
| 2.8 | 1000 | 1200 | 480 | 53 | 250 | 480 | 1500 | 120 | M103205H795-MY072/M103202L889-SK1 (antibody, human IgG1, kappa, Substitution put into M103205H795-SG1) heavy: not shown light: DIVMTQSPATLSLSPGERATLSCTSSQSVYHANWLSWFQQKPGQPPKLLIYWASTLAYGVPSRFSGSGSGTDFTLTISSLQPEDAATYYCAGGYGGGRYAFGQGTKVEIKRTVAAPSVFIFPPSDEQLKSGTASVVCLLNNFYPREAKVQWKVDNALQSGNSQESVTEQDSKDSTYSLSSTLTLSKADYEKHKVYACEVTHQGLSSPVTKSFNRGEC |
